Test results as given in patent US20200018762.

T1: biotinylated H4-derived unphosphorylated peptide TVTAMDVVYALKRQGRT
T1 chain: TVTAMDVVYALKRQGRT

B1: purified constitutively active E346K-Ack1 (HA-tagged) (protein)
chain: MQPEEGTGWLLELLSEVQLQQYFLRLRDDLNVTRLSHFEYVKNEDLEKIGMGRPGQRRLWEAVKRRKALCKRKSWMSKVFSGKRLEAEFPPHHSQSTFRKTSPAPGGPAGEGPLQSLTCLIGEKDLRLLEKLGDGSFGVVRRGEWDAPSGKTVSVAVKCLKPDVLSQPEAMDDFIREVNAMHSLDHRNLIRLYGVVLTPPMKMVTELAPLGSLLDRLRKHQGHFLLGTLSRYAVQVAEGMGYLESKRFIHRDLAARNLLLATRDLVKIGDFGLMRALPQNDDHYVMQEHRKVPFAWCAPESLKTRTFSHASDTWMFGVTLWEMFTYGQEPWIGLNGSQILHKIDKKGERLPRPEDCPQDIYNVMVQCWAHKPEDRPTFVALRDFLLEAQPTDMRALQDFEEPDKLHIQMNDVITVIEGRAENYWWRGQNTRTLCVGPFPRNVVTSVAGLSAQDISQPLQNSFIHTGHGDSDPRHCWGFPDRIDELYLGNPMDPPDLLSVELSTSRPPQHLGGVKKPTYDPVSEDQDPLSSDFKRLGLRKPGLPRGLWLAKPSARVPGTKASRGSGAEVTLIDFGEEPVVPALRPCAPSLAQLAMDACSLLDETPPQSPTRALPRPLHPTPVVDWDARPLPPPPAYDDVAQDEDDFEICSINSTLVGAGVPAGPSQGQTNYAFVPEQARPPPPLEDNLFLPPQGGGKPPSSAQTAEIFQALQQECMRQLQAPAGSPAPSPSPGGDDKPQVPPRVPIPPRPTRPHVQLSPAPPGEEETSQWPGPASPPRVPPREPLSPQGSRTPSPLVPPGSSPLPPRLSSSPGKTMPTTQSFASDPKYATPQVIQAPGPRAGPCILPIVRDGKKVSSTHYYLLPERPSYLERYQRFLREAQSPEEPTPLPVPLLLPPPSTPAPAAPTATVRPMPQAALDPKANFSTNNSNPGARPPPPRATARLPQRGCPGDGPEAGRPADKIQMAMVHGVTTEECQAALQCHGWSVQRAAQYLKVEQLFGLGLRPRGECHKVLEMFDWNLEQAGCHLLGSWGPAHHKR
B2: purified Ack1 (Examples 2 and 5) (protein)
chain: MQPEEGTGWLLELLSEVQLQQYFLRLRDDLNVTRLSHFEYVKNEDLEKIGMGRPGQRRLWEAVKRRKALCKRKSWMSKVFSGKRLEAEFPPHHSQSTFRKTSPAPGGPAGEGPLQSLTCLIGEKDLRLLEKLGDGSFGVVRRGEWDAPSGKTVSVAVKCLKPDVLSQPEAMDDFIREVNAMHSLDHRNLIRLYGVVLTPPMKMVTELAPLGSLLDRLRKHQGHFLLGTLSRYAVQVAEGMGYLESKRFIHRDLAARNLLLATRDLVKIGDFGLMRALPQNDDHYVMQEHRKVPFAWCAPESLKTRTFSHASDTWMFGVTLWEMFTYGQEPWIGLNGSQILHKIDKEGERLPRPEDCPQDIYNVMVQCWAHKPEDRPTFVALRDFLLEAQPTDMRALQDFEEPDKLHIQMNDVITVIEGRAENYWWRGQNTRTLCVGPFPRNVVTSVAGLSAQDISQPLQNSFIHTGHGDSDPRHCWGFPDRIDELYLGNPMDPPDLLSVELSTSRPPQHLGGVKKPTYDPVSEDQDPLSSDFKRLGLRKPGLPRGLWLAKPSARVPGTKASRGSGAEVTLIDFGEEPVVPALRPCAPSLAQLAMDACSLLDETPPQSPTRALPRPLHPTPVVDWDARPLPPPPAYDDVAQDEDDFEICSINSTLVGAGVPAGPSQGQTNYAFVPEQARPPPPLEDNLFLPPQGGGKPPSSAQTAEIFQALQQECMRQLQAPAGSPAPSPSPGGDDKPQVPPRVPIPPRPTRPHVQLSPAPPGEEETSQWPGPASPPRVPPREPLSPQGSRTPSPLVPPGSSPLPPRLSSSPGKTMPTTQSFASDPKYATPQVIQAPGPRAGPCILPIVRDGKKVSSTHYYLLPERPSYLERYQRFLREAQSPEEPTPLPVPLLLPPPSTPAPAAPTATVRPMPQAALDPKANFSTNNSNPGARPPPPRATARLPQRGCPGDGPEAGRPADKIQMAMVHGVTTEECQAALQCHGWSVQRAAQYLKVEQLFGLGLRPRGECHKVLEMFDWNLEQAGCHLLGSWGPAHHKR

Columns and labels:
[1] = molecular target: purified H4 protein (Example 3), P62805
[2] = molecular target: T1, biotinylated H4-derived …
[3] = molecular target: purified histone H3 (Example 2), P68431

Row | Protein | in vitro kinase assay, immunoblot with pTyr51-H4 antibody [1] | in vitro kinase assay on immobilized peptide, ELISA with pY88-H4 antibodies [2] | in vitro kinase reaction, immunoblot with pTyr99-H3 antibody [3]
1 | B1 | When purified E346K-Ack1 and H4 were incubated, H4 was Tyr51-phosphorylated, however, Ack1 inhibitor AIM-100 abrogated H4 pTyr51-phosphorylation (FIG. 26B) | – | –
2 | B2 | – | Incubation of H4 peptide with WEE1 and Ack1 protein resulted in robust H4 Tyr88-phosphorylation | Ack1 directly phosphorylates histone H3 at Tyr99 (FIG. 23)
